Data on eleven molecules can be found in patent publication US20260209350A1 (Alector, published 2026).

Where a chain is given by its changes, count along the chain named.

B1: Ab1 (antibody, human IgG1, V domains shown)
VH: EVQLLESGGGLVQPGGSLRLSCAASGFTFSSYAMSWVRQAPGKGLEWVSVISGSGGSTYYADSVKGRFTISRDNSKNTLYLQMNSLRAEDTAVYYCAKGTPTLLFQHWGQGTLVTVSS
VL: EIVMTQSPATLSVSPGERATLSCRASQSVSSNLAWYQQKPGQAPRLLIYGASTRATGIPARFSGSGSGTEFTLTISSLQSEDFAVYYCQQLPYWPPTFGGGTKVEIK
notes: human IgG1
B2: Ab14 (antibody, human IgG1, V domains shown)
VH: QVQLQESGPGLVKPSQTLSLTCTVSGGSISSGGYYWSWIRQHPGKGLEWIGNIYYSGSTVYNPSLKSRVTISVDTSKNQFSLKLSSVTAADTAVYYCARGLYGYGVLDVWGQGTMVTVSS
VL: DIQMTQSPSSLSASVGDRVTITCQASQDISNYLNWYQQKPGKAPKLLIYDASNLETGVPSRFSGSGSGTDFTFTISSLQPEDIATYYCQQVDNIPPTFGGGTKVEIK
notes: human IgG1
B3: Ab9 (antibody, human IgG1, V domains shown)
VH: EVQLVQSGAEVKKPGESLKISCKGSGYSFTSYWIGWVRQMPGKGLEWMGIIYPGDSDTTYSPSFQGQVTISADKSISTAYLQWSSLKASDTAMYYCARLHISGEVNWFDPWGQGTLVTVSS
VL: EIVLTQSPATLSLSPGERATLSCRASQSVSSYLAWYQQKPGQAPRLLIYDASNRATGIPARFSGSGSGTDFTLTISSLEPEDFAVYYCQQFSYWPWTFGGGTKVEIK
notes: human IgG1
B4: Ab22 (antibody, human IgG1, V domains shown)
VH: EVQLVQSGAEVKKPGESLKISCKGSGYSFTTYWIGWVRQMPGKGLEWMGIIYPGDSDTRYSPSFQGQVTISADKSISTAYLQWSSLKASDTAMYYCARAGHYDGGHLGMDVWGQGTTVTVSS
VL: EIVMTQSPGTLSLSPGERATLSCRASQSVSSSYLAWYQQKPGQAPRLLIYGASSRATGIPDRFSGSGSGTDFTLTISRLEPEDFAVYYCQQDDRSPYTFGGGTKVEIK
notes: human IgG1
B5: Ab45 (antibody, human IgG1, V domains shown)
VH: QVQLVQSGAEVKKPGASVKVSCKASGYTFTSYYMHWVRQAPGQGLEWMGIINPSGGSTSYAQKFQGRVTMTRDTSTSTVYMELSSLRSEDTAVYYCARGPGYTTALDYYYMDVWGKGTTVTVSS
VL: EIVMTQSPATLSVSPGERATLSCRASQSVSSNLAWYQQKPGQAPRLLIYGASTRATGIPARFSGSGSGTEFTLTISSLQSEDFAVYYCQQLDDWFTFGGGTKVEIK
notes: human IgG1
B6: Ab2 (antibody, human IgG1, V domains shown)
VH: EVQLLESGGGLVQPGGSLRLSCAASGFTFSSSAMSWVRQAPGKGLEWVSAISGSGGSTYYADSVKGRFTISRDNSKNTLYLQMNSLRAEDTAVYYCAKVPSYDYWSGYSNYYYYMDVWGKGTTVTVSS
VL: B1 VL with M4L, S30G, L91Y, P92F, Y93F, W94Y
notes: human IgG1
B7: Ab68 (antibody, human IgG1, V domains shown)
VH: QVQLVESGGGVVQPGRSLRLSCAASGFTFSSYGMHWVRQAPGKGLEWVALIWYDGSNKYYADSVKGRFTISRDNSKNTLYLQMNSLRAEDTAVYYCAKPGSMTDYWGQGTLVTVSS
VL: B3 VL with F91R, S92A, Y93N, W94Y, W96I
notes: human IgG1
B8: Ab78 (antibody, human IgG1, V domains shown)
VH: QVQLVESGGGVVQPGRSLRLSCAASGFTFSSYGMHWVRQAPGKGLEWVAVIWYDGSNKYYADSVKGRFTISRDNSKNTLYLQMNSLRAEDTAVYYCARTPYPWIYFDLWGRGTLVTVSS
VL: B3 VL with F91A, S92D, Y93N, W96F
notes: human IgG1
B9: Ab7 (antibody, human IgG1, V domains shown)
VH: QVQLVQSGAEVKKPGASVKVSCKASGYTFTSYYMHWVRQAPGQGLEWMGIINPSGGSTTYAQKFQGRVTMTRDTSTSTVYMELSSLRSEDTAVYYCARTSSKERDYWGQGTLVTVSS
VL: B3 VL with N53K, F91R, S92I, Y93S, W94Y, W96I
notes: human IgG1
B10: Ab71 (antibody, human IgG1, V domains shown)
VH: QVQLVQSGAEVKKPGASVKVSCKASGYTFTSYYMHWVRQAPGQGLEWMGIINPSGGSTSYAQKFQGRVTMTRDTSTSTVYMELSSLRSEDTAVYYCARDISTHDYDLAFDIWGQGTMVTVSS
VL: B4 VL with S54N, D92A, D93G, R94S, S95H, Y97F
notes: human IgG1
B11: Ab8 (antibody, human IgG1, V domains shown)
VH: QLQLQESGPGLVKPSETLSLTCTVSGGSISSSSYYWGWIRQPPGKGLEWIGSISYSGSTYYNPSLKSRVTISVDTSKNQFSLKLSSVTAADTAVYYCARGPYRLLLGMDVWGQGTTVTVSS
VL: DIQMTQSPSSLSASVGDRVTITCRASQSISSYLNWYQQKPGKAPKLLIYGASSLQSGVPSRFSGSGSGTDFTLTISSLQPEDFATYYCQQIDDTPITFGGGTKVEIK
notes: human IgG1

By Kd is commonly meant the constant that tells how readily two partners part at equilibrium. Higher therefore signals lower affinity.

One test has as its target T1, human TREM2 on primary human cells (human, UniProt Q9NZC2 19-230).
T1 construct: also called hTREM2; TREM2 on primary human dendritic cells (hDC) and human macrophages
T1 sequence: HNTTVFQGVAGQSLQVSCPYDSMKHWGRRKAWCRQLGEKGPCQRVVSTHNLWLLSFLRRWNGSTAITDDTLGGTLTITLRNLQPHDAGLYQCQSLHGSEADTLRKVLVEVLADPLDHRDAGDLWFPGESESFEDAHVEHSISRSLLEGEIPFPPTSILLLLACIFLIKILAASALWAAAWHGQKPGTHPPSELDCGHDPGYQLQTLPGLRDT
Nature of the test: FACS, primary human dendritic cells. Background: Flow cytometry measures light scatter and fluorescence of single cells or particles in a stream.
On to B1, for which the hDC % positive is 64.9%.

Take B2: the hDC % positive worked out at 75.8%.

With B3, the hDC % positive was found to be 65.8%.

Turning to B4, the hDC % positive worked out at 76.9%.

The molecule B5 returned a hDC % positive of 78.8%.

The target of a further test is T1, human TREM2 on primary human cells. Description: cell-based or functional assay.
Take B1: the “Induction of CD86 & CD83 Human hDC plate (% CD83+CD86+ cells)” value is 87.2% and the “Induction of CD86 & CD83 hDC solution (% CD83+CD86+ cells)” value was 3%.

As to B2, the “Induction of CD86 & CD83 Human hDC plate (% CD83+CD86+ cells)” value is 78.7% and the “Induction of CD86 & CD83 hDC solution (% CD83+CD86+ cells)” value turned out to be 1.9%.

Consider B3, for which the “Induction of CD86 & CD83 Human hDC plate (% CD83+CD86+ cells)” value is 79.3% and the “Induction of CD86 & CD83 hDC solution (% CD83+CD86+ cells)” value was determined as 5.6%.

Take B4: the “Induction of CD86 & CD83 Human hDC plate (% CD83+CD86+ cells)” value was 74.5% and the “Induction of CD86 & CD83 hDC solution (% CD83+CD86+ cells)” value stood at 1.2%.

On to B5, for which the “Induction of CD86 & CD83 Human hDC plate (% CD83+CD86+ cells)” value was 65.5% and the “Induction of CD86 & CD83 hDC solution (% CD83+CD86+ cells)” value is 4.3%.

For the next test, the target named is T2, human TREM2 Fc fusion protein (human, UniProt Q9NZC2 19-174).
T2 construct: also called hTREM2-Fc; not shown: Fc part not specified
T2 sequence: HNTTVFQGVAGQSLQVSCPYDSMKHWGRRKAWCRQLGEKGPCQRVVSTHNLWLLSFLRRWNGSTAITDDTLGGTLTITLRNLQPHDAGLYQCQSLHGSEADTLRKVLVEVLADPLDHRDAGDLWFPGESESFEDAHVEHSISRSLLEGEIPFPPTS
Nature of the test: ForteBio or MSD-SET, avid. For orientation: BLI is a label-free optical method that tracks binding on a fibre tip over time.
The molecule B1 came in with a Kd of 0.705 nM.

On to B2, for which the Kd amounted to 0.551 nM.

In the case of B3, binding was characterised by a dissociation constant (Kd) of 0.348 nM.

Molecule B4 came in with a Kd of 0.306 nM.

With B5, binding was characterised by a dissociation constant (Kd) of 0.229 nM.

For another test, the target named is T3, mouse TREM2 Fc fusion protein (mouse, UniProt Q99NH8 19-171).
T3 construct: also called mTREM2-Fc; not shown: Fc part not specified
T3 sequence (looked up): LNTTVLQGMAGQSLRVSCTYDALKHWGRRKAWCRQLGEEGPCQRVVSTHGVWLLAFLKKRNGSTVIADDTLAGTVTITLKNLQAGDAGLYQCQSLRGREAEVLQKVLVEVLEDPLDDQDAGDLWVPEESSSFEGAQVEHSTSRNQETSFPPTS
Nature of the test: ForteBio or MSD-SET, avid.
As for B1, the Kd turned out to be 4.86 nM.

Take B2: the Kd is 0.62 nM.

With B4, the dissociation constant (Kd) was 0.34 nM.

The target of another test is T4, mouse TREM2 on cells (mouse, UniProt Q99NH8 19-227).
T4 construct: whole, on cells; Used for the recombinant protein on BWZ/BW cells (with mouse DAP12) and for the native protein on mouse macrophages and dendritic cells; the cell type stands under assay; also called mTREM2; mTrem2
T4 sequence (looked up): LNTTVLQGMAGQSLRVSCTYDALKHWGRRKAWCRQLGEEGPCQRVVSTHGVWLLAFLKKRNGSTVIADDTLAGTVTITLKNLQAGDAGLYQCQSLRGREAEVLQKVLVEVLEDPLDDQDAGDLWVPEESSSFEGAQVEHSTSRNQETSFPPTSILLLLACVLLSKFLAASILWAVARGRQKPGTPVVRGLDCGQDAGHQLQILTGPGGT
Nature of the test: FACS, WT mouse dendritic cells.
Protocol: (§1) Cells were harvested, plated at 10⁵/ml in a 96 well plate, washed, and incubated in 100 ul PBS containing 10-50 ug/ml Mab and Fc blocking reagent for 1 hour in ice. Cells were then washed twice and incubated in 100 ul PBS containing 5 ug/ml PE-conjugated secondary antibody for 30 minutes in ice. Cells were washed twice in cold PBS and acquired on a BD FACS Canto. Data analysis and calculation of MFI values was performed with FlowJo (TreeStar) software version 10.0.7.
The molecule B1 returned an MFI of 393 MFI.

Turning to B2, the MFI worked out at 529 MFI.

The molecule B3 registered an MFI of 538 MFI.

As for B4, the MFI was 451 MFI.

As to B5, the MFI amounted to 652 MFI.

The next test addresses T5, human monomeric His tagged TREM2 protein (human, UniProt Q9NZC2 19-174).
T5 construct: also called hTREM2-HIS
T5 sequence: T2 sequence
Nature of the test: ForteBio or MSD-SET, monovalent.
In turn, B6 registered a Kd of 24.1 nM.

In the case of B7, the Kd is 109 nM.

As to B8, the Kd was 37.3 nM.

On to B9, for which the Kd was 33.4 nM.

On to B10, for which the affinity, expressed as Kd, was 64.7 nM.

On to B11, for which the dissociation constant Kd was 15 nM.

The next test has as its target T5, human monomeric His tagged TREM2 protein. Description: ForteBio or MSD-SET, monovalent. This is another data set of the same source.
Protocol: The binding affinity of each anti-TREM2 antibody was determined by measuring their KD by ForteBio or MSD-SET. […] Briefly, ForteBio affinity measurements were performed by loading IgGs on-line onto AHQ sensors. Sensors were equilibrated off-line in assay buffer for 30 min and then monitored on-line for 60 seconds for baseline establishment. Sensors with loaded IgGs were exposed to 100 nM antigen for 5 minutes, then transferred to assay buffer for 5 min for off-rate measurement. Kinetics were analyzed using the 1:1 binding model.
Solution equilibrium titrations (SET) were performed in PBS+0.1% IgG-Free BSA (PBSF) with antigen held constant at 50 pM and incubated with 3- to 5-fold serial dilutions of antibody starting at 10 nM. Antibodies (20 nM in PBS) were coated onto standard bind MSD-ECL plates overnight at 4° C. or at room temperature for 30 min. Plates were then blocked for 30 min with shaking at 700 rpm, followed by three washes with wash buffer (PBSF+0.05% Tween 20). SET samples were applied and incubated on the plates for 150s with shaking at 700 rpm followed by one wash. Antigen captured on a plate was detected with 250 ng/mL sulfotag-labeled streptavidin in PBSF by incubation on the plate for 3 min. The plates were washed three times with wash buffer and then read on the MSD Sector Imager 2400 instrument using 1×Read Buffer T with surfactant. The percent free antigen was plotted as a function of titrated antibody in Prism and fit to a quadratic equation to extract the KD. To improve throughput, liquid handling robots were used throughout MSD-SET experiments, including SET sample preparation.
Molecule B1 gave a dissociation constant Kd of 6.67 nM.

The molecule B2 yielded a Kd of 3.19 nM.

B3 registered a dissociation constant Kd of 6.32 nM.

Regarding B4, the equilibrium dissociation constant (Kd) was determined as 1.01 nM.

B5 showed a Kd of 0.654 nM.

Another test deals with T2, human TREM2 Fc fusion protein. Nature of the test: ForteBio or MSD-SET, avid. The source holds these as a separate data set.
As for B6, the Kd turned out to be 0.592 nM.

In turn, B7 returned a Kd of 6.68 nM.

Consider B8, for which the affinity, expressed as Kd, was 0.851 nM.

In turn, B9 came in with a dissociation constant Kd of 1.05 nM.

As to B10, binding was put at a Kd of 2.77 nM.

Turning to B11, the affinity, expressed as Kd, was 0.723 nM.

For a further test, the target named is T3, mouse TREM2 Fc fusion protein. Description: ForteBio or MSD-SET, avid. This is another data set of the same source.
Consider B6, for which the binding result was “no binding”.

The molecule B7 registered a Kd of 3.26 nM.

Consider B8, for which the binding result is reported as “no binding”.

Consider B9, for which the Kd came to 1.11 nM.

For the molecule B10, the binding result is given as “no binding”.

Regarding B11, the binding result is reported as “no binding”.

In another test the target is T4, mouse TREM2 on cells. Nature of the test: FACS, WT mouse macrophages.
Protocol: as §1
With B1, the MFI turned out to be 82.3 MFI.

In turn, B2 displayed an MFI of 145 MFI.

Consider B3, for which the MFI amounted to 171 MFI.

In turn, B4 yielded an MFI of 110 MFI.

In turn, B5 came in with an MFI of 141 MFI.

A further test deals with T4, mouse TREM2 on cells. Description: FACS, mTrem2 cells.
Regarding B6, the MFI turned out to be 1430 MFI.

The molecule B7 had an MFI of 2100 MFI.

Regarding B8, the MFI stood at 433 MFI.

B9 came in with an MFI of 10900 MFI.

B10 registered an MFI of 804 MFI.

Regarding B11, the MFI turned out to be 523 MFI.

The next test deals with T4, mouse TREM2 on cells. Nature of the test: FACS, BWZ T2 cells.
Consider B1, for which the MFI worked out at 12600 MFI.

As for B2, the MFI worked out at 11600 MFI.

B3 had an MFI of 15700 MFI.

Regarding B4, the MFI worked out at 12500 MFI.

B5 came in with an MFI of 16300 MFI.
